Biological target: Factor X (FX), P00742
Sequence (P00742 whole entry, looked up): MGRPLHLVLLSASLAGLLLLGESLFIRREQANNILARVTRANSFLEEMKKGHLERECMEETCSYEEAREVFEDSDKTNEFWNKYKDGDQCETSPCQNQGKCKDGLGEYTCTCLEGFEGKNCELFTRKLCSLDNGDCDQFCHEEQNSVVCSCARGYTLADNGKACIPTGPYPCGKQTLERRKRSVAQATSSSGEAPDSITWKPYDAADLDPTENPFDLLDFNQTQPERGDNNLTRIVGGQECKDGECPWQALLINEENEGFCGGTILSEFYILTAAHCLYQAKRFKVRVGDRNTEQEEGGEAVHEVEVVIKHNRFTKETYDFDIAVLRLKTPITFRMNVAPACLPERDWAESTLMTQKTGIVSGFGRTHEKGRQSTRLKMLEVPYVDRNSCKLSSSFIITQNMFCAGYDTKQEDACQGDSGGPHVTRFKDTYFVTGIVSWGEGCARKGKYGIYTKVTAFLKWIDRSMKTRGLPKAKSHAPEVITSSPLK

Protein | % of WT kcat/KM [%] | kcat/KM [M⁻¹ s⁻¹]
FIXa variant D203N/F205T/R338A (protein) chain 1: YNSGKLEEFVQGNLERECMEEKCSFEEAREVFENTERTTEFWKQYVDGDQCESNPCLNGGSCKDDINSYECWCPFGFEGKNCELDVTCNIKNGRCEQFCKNSADNKVVCSCTEGYRLAENQKSCEPAVPFPCGRVSVSQTSKLTR chain 2: VVGGEDAKPGQFPWQVVLNGKVNATCGGSIVNEKWIVTAAHCVETGVKITVVAGEHNIEETEHTEQKRNVIRIIPHHNYNAAINKYNHDIALLELDEPLVLNSYVTPICIADKEYTNIFLKFGSGYVSGWGRVFHKGRSALVLQYLRVPLVDRATCLASTKFTIYNNMFCAGFHEGGRDSCQGDSGGPHVTEVEGTSFLTGIISWGEECAMKGKYGIYTKVSRYVNWIKEKTKLT | 135 | 6.2e+07
FIXa variant D104N/K106S/R318Y/R338E/E410N (protein) chain 1: YNSGKLEEFVQGNLERECMEEKCSFEEAREVFENTERTTEFWKQYVDGDQCESNPCLNGGSCKDDINSYECWCPFGFEGKNCELDVTCNIKNGRCEQFCKNSANNSVVCSCTEGYRLAENQKSCEPAVPFPCGRVSVSQTSKLTR chain 2: VVGGEDAKPGQFPWQVVLNGKVDAFCGGSIVNEKWIVTAAHCVETGVKITVVAGEHNIEETEHTEQKRNVIRIIPHHNYNAAINKYNHDIALLELDEPLVLNSYVTPICIADKEYTNIFLKFGSGYVSGWGRVFHKGYSALVLQYLRVPLVDRATCLESTKFTIYNNMFCAGFHEGGRDSCQGDSGGPHVTEVEGTSFLTGIISWGEECAMKGKYGIYTKVSRYVNWIKNKTKLT | 564 | 2.6e+08
FIXa variant K228N/R318Y/E410N (protein) chain 1: YNSGKLEEFVQGNLERECMEEKCSFEEAREVFENTERTTEFWKQYVDGDQCESNPCLNGGSCKDDINSYECWCPFGFEGKNCELDVTCNIKNGRCEQFCKNSADNKVVCSCTEGYRLAENQKSCEPAVPFPCGRVSVSQTSKLTR chain 2: VVGGEDAKPGQFPWQVVLNGKVDAFCGGSIVNEKWIVTAAHCVETGVNITVVAGEHNIEETEHTEQKRNVIRIIPHHNYNAAINKYNHDIALLELDEPLVLNSYVTPICIADKEYTNIFLKFGSGYVSGWGRVFHKGYSALVLQYLRVPLVDRATCLRSTKFTIYNNMFCAGFHEGGRDSCQGDSGGPHVTEVEGTSFLTGIISWGEECAMKGKYGIYTKVSRYVNWIKNKTKLT | 264 | 1.2e+08
FIXa variant Y155F/R318Y/R403E/E410N (protein) chain 1: YNSGKLEEFVQGNLERECMEEKCSFEEAREVFENTERTTEFWKQYVDGDQCESNPCLNGGSCKDDINSYECWCPFGFEGKNCELDVTCNIKNGRCEQFCKNSADNKVVCSCTEGYRLAENQKSCEPAVPFPCGRVSVSQTSKLTR chain 2: VVGGEDAKPGQFPWQVVLNGKVDAFCGGSIVNEKWIVTAAHCVETGVKITVVAGEHNIEETEHTEQKRNVIRIIPHHNYNAAINKYNHDIALLELDEPLVLNSYVTPICIADKEYTNIFLKFGSGYVSGWGRVFHKGYSALVLQYLRVPLVDRATCLRSTKFTIYNNMFCAGFHEGGRDSCQGDSGGPHVTEVEGTSFLTGIISWGEECAMKGKYGIYTKVSEYVNWIKNKTKLT | 78 | 3.6e+07
FIXa variant Y155F/R318Y/R338E/E410N (protein) chain 1: YNSGKLEEFVQGNLERECMEEKCSFEEAREVFENTERTTEFWKQYVDGDQCESNPCLNGGSCKDDINSYECWCPFGFEGKNCELDVTCNIKNGRCEQFCKNSADNKVVCSCTEGYRLAENQKSCEPAVPFPCGRVSVSQTSKLTR chain 2: VVGGEDAKPGQFPWQVVLNGKVDAFCGGSIVNEKWIVTAAHCVETGVKITVVAGEHNIEETEHTEQKRNVIRIIPHHNYNAAINKYNHDIALLELDEPLVLNSYVTPICIADKEYTNIFLKFGSGYVSGWGRVFHKGYSALVLQYLRVPLVDRATCLESTKFTIYNNMFCAGFHEGGRDSCQGDSGGPHVTEVEGTSFLTGIISWGEECAMKGKYGIYTKVSRYVNWIKNKTKLT | 810 | 3.7e+08
FIXa variant D203N/F205T/R338E/R403E (protein) chain 1: YNSGKLEEFVQGNLERECMEEKCSFEEAREVFENTERTTEFWKQYVDGDQCESNPCLNGGSCKDDINSYECWCPFGFEGKNCELDVTCNIKNGRCEQFCKNSADNKVVCSCTEGYRLAENQKSCEPAVPFPCGRVSVSQTSKLTR chain 2: VVGGEDAKPGQFPWQVVLNGKVNATCGGSIVNEKWIVTAAHCVETGVKITVVAGEHNIEETEHTEQKRNVIRIIPHHNYNAAINKYNHDIALLELDEPLVLNSYVTPICIADKEYTNIFLKFGSGYVSGWGRVFHKGRSALVLQYLRVPLVDRATCLESTKFTIYNNMFCAGFHEGGRDSCQGDSGGPHVTEVEGTSFLTGIISWGEECAMKGKYGIYTKVSEYVNWIKEKTKLT | 41 | 1.9e+07
FIXa variant R318Y/R403E/E410N (protein) chain 1: YNSGKLEEFVQGNLERECMEEKCSFEEAREVFENTERTTEFWKQYVDGDQCESNPCLNGGSCKDDINSYECWCPFGFEGKNCELDVTCNIKNGRCEQFCKNSADNKVVCSCTEGYRLAENQKSCEPAVPFPCGRVSVSQTSKLTR chain 2: VVGGEDAKPGQFPWQVVLNGKVDAFCGGSIVNEKWIVTAAHCVETGVKITVVAGEHNIEETEHTEQKRNVIRIIPHHNYNAAINKYNHDIALLELDEPLVLNSYVTPICIADKEYTNIFLKFGSGYVSGWGRVFHKGYSALVLQYLRVPLVDRATCLRSTKFTIYNNMFCAGFHEGGRDSCQGDSGGPHVTEVEGTSFLTGIISWGEECAMKGKYGIYTKVSEYVNWIKNKTKLT | 54 | 2.5e+07
FIXa variant R318Y/R338E/E410N (protein) chain 1: YNSGKLEEFVQGNLERECMEEKCSFEEAREVFENTERTTEFWKQYVDGDQCESNPCLNGGSCKDDINSYECWCPFGFEGKNCELDVTCNIKNGRCEQFCKNSADNKVVCSCTEGYRLAENQKSCEPAVPFPCGRVSVSQTSKLTR chain 2: VVGGEDAKPGQFPWQVVLNGKVDAFCGGSIVNEKWIVTAAHCVETGVKITVVAGEHNIEETEHTEQKRNVIRIIPHHNYNAAINKYNHDIALLELDEPLVLNSYVTPICIADKEYTNIFLKFGSGYVSGWGRVFHKGYSALVLQYLRVPLVDRATCLESTKFTIYNNMFCAGFHEGGRDSCQGDSGGPHVTEVEGTSFLTGIISWGEECAMKGKYGIYTKVSRYVNWIKNKTKLT | 727 | 3.4e+08
FIXa variant K228N/R338E/R403E (protein) chain 1: YNSGKLEEFVQGNLERECMEEKCSFEEAREVFENTERTTEFWKQYVDGDQCESNPCLNGGSCKDDINSYECWCPFGFEGKNCELDVTCNIKNGRCEQFCKNSADNKVVCSCTEGYRLAENQKSCEPAVPFPCGRVSVSQTSKLTR chain 2: VVGGEDAKPGQFPWQVVLNGKVDAFCGGSIVNEKWIVTAAHCVETGVNITVVAGEHNIEETEHTEQKRNVIRIIPHHNYNAAINKYNHDIALLELDEPLVLNSYVTPICIADKEYTNIFLKFGSGYVSGWGRVFHKGRSALVLQYLRVPLVDRATCLESTKFTIYNNMFCAGFHEGGRDSCQGDSGGPHVTEVEGTSFLTGIISWGEECAMKGKYGIYTKVSEYVNWIKEKTKLT | 105 | 4.8e+07
FIXa variant D203N/F205T/R318Y (protein) chain 1: YNSGKLEEFVQGNLERECMEEKCSFEEAREVFENTERTTEFWKQYVDGDQCESNPCLNGGSCKDDINSYECWCPFGFEGKNCELDVTCNIKNGRCEQFCKNSADNKVVCSCTEGYRLAENQKSCEPAVPFPCGRVSVSQTSKLTR chain 2: VVGGEDAKPGQFPWQVVLNGKVNATCGGSIVNEKWIVTAAHCVETGVKITVVAGEHNIEETEHTEQKRNVIRIIPHHNYNAAINKYNHDIALLELDEPLVLNSYVTPICIADKEYTNIFLKFGSGYVSGWGRVFHKGYSALVLQYLRVPLVDRATCLRSTKFTIYNNMFCAGFHEGGRDSCQGDSGGPHVTEVEGTSFLTGIISWGEECAMKGKYGIYTKVSRYVNWIKEKTKLT | 44 | 2e+07

Reference: US20210238260
